For one substance, percent of ACE2-expressing cells positive for S1-Fc results are on record in article PMC8601601.

For experiment [1], the target named is mink ACE2 with a C-terminal FLAG tag, on transduced HeLa cells (mink (Neovison vison)). In words: flow cytometry on cells. Background: Flow cytometry measures light scatter and fluorescence of single cells or particles in a stream.
Experiment [2] has as its target human ACE2 with a C-terminal FLAG tag, on transduced HeLa cells (human) (UniProt Q9BYF1). In words: flow cytometry on cells.

Turning to “WT S1 domain of SARS-CoV-2 spike C-terminally fused with a His tag (domain or fragment)”, the percent of ACE2-expressing cells positive for S1-Fc in experiment [1] is 1.2%; in experiment [2], 86.5%.
